The target in this assay is Bcl-XL-126Bpa (UniProt Q07817). Put plainly: BLI.

This is an account of results in publication PMC12874534.

By Kd is commonly meant the constant that tells how readily two partners part at equilibrium.

Chain of UniProt Q07817 (Q07817 whole entry): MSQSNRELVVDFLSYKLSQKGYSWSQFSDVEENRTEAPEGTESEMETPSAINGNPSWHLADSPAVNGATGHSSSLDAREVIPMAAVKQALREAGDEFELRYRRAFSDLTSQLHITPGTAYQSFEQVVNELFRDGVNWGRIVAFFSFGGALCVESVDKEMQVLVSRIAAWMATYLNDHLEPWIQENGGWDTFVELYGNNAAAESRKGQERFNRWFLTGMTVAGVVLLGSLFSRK

As to “Bid-83Bpa (from UniProt P55957 1-195) (natural protein)”, the Kd worked out at 1770 nM.
